Measurements published in the RNAGym collection of RNA variant scans (doi:10.1073/pnas.2313332121).

B1: TPR t1 (parent)
chain: GACCAAUCUGCCCUCAGAGCUCGAGAACAUCUUCGGAUGCAGAGGAGGCAGGCUUCGGUGGCGCGAUAGCGCCAACGUCCUCAACCUCCAAUGCAUCCCACCACAUGAUGAUGCCUGAAGAGCCUUGGUUUUUUG

Variants of: B1
Assay: polymerase ribozyme fitness, log enrichment relative to wild type (log ratio); higher = more active; in vitro selection for triplet polymerase activity
How it was run: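 Each subunit of a heterodimeric triplet polymerase ribozyme was mutagenized into a library by PCR, transcribed, and subjected to one round of in vitro selection, run in triplicate. Libraries were annealed with a biotinylated primer, the partner subunit and triplets, incubated frozen at −7 °C, and extended constructs were gel-excised, captured on streptavidin beads and recovered by RT-PCR. Input and output libraries were sequenced on Illumina, keeping genotypes with ≥10 input reads and ≥1 read per output. Fitness is log base 2 of genotype enrichment divided by wild-type enrichment, from inverse-variance-weighted replicate averages.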

| Variant | polymerase ribozyme fitness (log ratio) |
| --- | --- |
| C11G C20U A26C A27G G44U C114U | -6.01 |
| C11U C15A A26G C53G G63U G120C | -4.53 |
| C11U U59C G93A | -1.49 |
| C11U A46U C86G C104U | -2.24 |
| C12A A41U A43U C104U U129G | -4.67 |
| C11G C56U C76G U106A A119U | -1.85 |
| C12A C22U U78C A121U | -2.5 |
| C11G C49U G120C | 1.52 |
| C11G C40G G42U C73G U87A | -4.66 |
| C12A C40A | -2.34 |
| C12A C56A C115U G120A C123A | -1.84 |
| C11G G63C | -0.406 |
| C11G G63A | -0.354 |
| C12A A18G C40U | -4.84 |
| C11U U106C | -0.678 |
| C11G C28A | -2.78 |
| C11G C13A C82G A84G | -1.63 |
| C11U G48U G113A | -2.84 |
| C11U C62G | -1.21 |
| C11U G93A | -0.986 |
| C12A G57A G69C U106C | -2.99 |

| Variant | polymerase ribozyme fitness (log ratio) |
| --- | --- |
| C12A C49U G69U U109A U116A C123G | -5.67 |
| C11G C28A C56U C124G | -3.7 |
| C11G G63A C82G G117U C123G | -2.82 |
| C11G G36U G47U G63A U78G | -2.93 |
| C11U C73U C114A C123U | -2.7 |
| C11G G120A | 1.51 |
| C11G G120U | 1.37 |
| C11G G120C | 1.89 |
| C11U G52A C80U | -2.45 |
| C11G C22G A41G G128C | -5.82 |
| C11U A43U C53G | -2.46 |
| C11U G35U G39U C56A G71U G122A | -6.34 |
| C11G C53G C114U G127C | -1.98 |
| C12A G42C C73A C80U A118G | -3.44 |
| C11U G63A C72A | -7.14 |
| C11U A121G | 1.13 |
| C11U C102U | -2.09 |
| C11G G44A A68G | -4.14 |
| C11U C20A A29U G117U | -4.71 |
| C12A C20A G113U C115U U131A | -3.38 |
| C12A C22A A26C G120U | -4.36 |

| Variant | polymerase ribozyme fitness (log ratio) |
| --- | --- |
| C12A C70A U92A | -5.67 |
| C11U C56U G128C | -3.11 |
| C11G C76U C99A U130G | -6.95 |
| C11U U59A A91G A118U | -1.98 |
| C11U A18C C73U G127A | -5.36 |
| C11G C13U C101G | -1.63 |
| C12A A24G A41C A43C A46G C53G | -4.67 |
| C11U C79G | -1.69 |
| C12A A29U C86A | -2.52 |
| C11U G45C | -1.59 |
| C11G G45U G51C G61A | -3.84 |
| C11G C40U C53U U87A A90U U112A G127C | -2.43 |
| C12A C15U G69A G93U U109G | -6.39 |
| C11G C13U C104A A111U | -3.99 |
| C11G C28G G58U | -2.76 |
| C11U C22G A111G G122U U129C | -6.1 |
| C12A C123A | 0.369 |
| C11G C56U A74U A84G G135U | -1.8 |
| C12A C15U G71U A121C G127U | 0.118 |
| C11U G39U C102A C104U A111G | -1.71 |
| C11U G44C | -1.47 |

| Variant | polymerase ribozyme fitness (log ratio) |
| --- | --- |
| C11U G44A | -1.49 |
| C11G C22G C53G C70U C82U | -4.01 |
| C12A A41C C72U U92G A111G | -1.91 |
| C11G G45U | -2.69 |
| C11G C73U C85A A111G | -0.304 |
| C11G C12G C79G C94U G117A U131A | -2.71 |
| C12A G60C U106G | -2.28 |
| C12A A46U C72G C114U | -4.57 |
| C11G G42U C124U | 0.5 |
| C11U A41U C62U C85A C102U C114G G120C | -6.27 |
| C12A G57U C72U | -0.582 |
| C11G C13G A111C A121G | 0.62 |
| C11U A43U G60U A90C | -1.62 |
| C11G G17A U81A C85U G117C | -4.91 |
| C11G G51U C62A G71A C89U C97U | -6.66 |
| C11U C28G A83C C85U | -4.39 |
| C12A C53U C73A | -0.585 |
| C12A C70G | -2.78 |
| C12A C70U | -0.454 |
| C11G G23C U32C G61A C86U U133A | -5.64 |
